Target: T1, recombinant ApoE3 (human, UniProt P02649 19-317)
T1 construct: Apolipoprotein E, isoform ApoE3; also called apolipoprotein E3; source: bought: BioVision
Assay: AlphaScreen or HTRF; AlphaLISA: ApoE2, 3 or 4 (0-100 nM) with biotinylated CLCF1 (10 nM) in PBS 0.1% BSA, rat anti-ApoE IgG (3 nM), anti-rat IgG acceptor beads, streptavidin donor beads; also with ApoE (30 nM) preincubated with DMPC (0-1000 uM) 1 h at 37 °C
Conditions: both partners purified

T1 sequence (P02649 19-317): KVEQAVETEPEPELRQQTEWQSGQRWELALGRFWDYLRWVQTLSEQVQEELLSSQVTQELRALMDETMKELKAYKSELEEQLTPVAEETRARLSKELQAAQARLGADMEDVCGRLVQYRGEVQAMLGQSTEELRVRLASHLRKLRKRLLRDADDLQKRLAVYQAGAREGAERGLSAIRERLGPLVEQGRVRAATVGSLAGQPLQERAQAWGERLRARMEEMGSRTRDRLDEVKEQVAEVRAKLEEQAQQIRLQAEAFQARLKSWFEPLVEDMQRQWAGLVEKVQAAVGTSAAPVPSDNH

binding result: binds
B1: biotinylated human CLCF1 (cardiotrophin-like cytokine factor 1) (ligand, UniProt Q9UBD9 28-225, looked up)
chain: LNRTGDPGPGPSIQKTYDLTRYLEHQLRSLAGTYLNYLGPPFNEPDFNPPRLGAETLPRATVDLEVWRSLNDKLRLTQNYEAYSHLLCYLRGLNRQAATAELRRSLAHFCTSLQGLLGSIAGVMAALGYPLPQPLPGTEPTWTPGPAHSDFLQKMDDFWLLKELQTWLWRSAKDFNRLKKKMQPPAAAVTLHLGAHGF
modifications: biotin on the Avitag (BirA biotin-ligase)
notes: Cardiotrophin-like cytokine factor 1 (CLCF1), human, mature protein, codon optimized synthetic cDNA in pET24d; also called biotinylated hCLCF1; hCLC biot

From publication PMC5838168, “Effect of human very low-density lipoproteins on cardiotrophin-like cytokine factor 1 (CLCF1) activity” (Scientific Reports, 2018)
